Test system: intracellular proteome of ENR+CD and ENR organoids
Assay: LC-MS/MS TMT proteomics of ENR+CD versus ENR organoids
Format: cell-based, C57BL/6 mice
Conditions: for Average logFC / M1-1 Log2 Median Normalized / M1-2 Log2 Median Normalized / M2-1 Log2 Median Normalized / M2-2 Log2 Median Normalized: protein abundance, ENR+CD versus ENR organoids; for Average logFC: aggregate of the four sample pairs; for M1-1 Log2 Median Normalized: replicate M1-1; for M1-1 Log2 Median Normalized / M1-2 Log2 Median Normalized / M2-1 Log2 Median Normalized / M2-2 Log2 Median Normalized: log2 ratio; for M1-2 Log2 Median Normalized: replicate M1-2; for M2-1 Log2 Median Normalized: replicate M2-1; for M2-2 Log2 Median Normalized: replicate M2-2; for change: up = enriched in ENR+CD, down = enriched in ENR, FDR<0.05 and log fold change cut-off

Molecule | Average logFC | M1-1 Log2 Median Normalized | M1-2 Log2 Median Normalized | M2-1 Log2 Median Normalized | M2-2 Log2 Median Normalized | change
Q3UQ28 (protein, UniProt Q3UQ28 1-1475, looked up, full-length) MAVRPTRRCLLALLLCFAWWAMAVVASKQGAGCPSRCLCFRTTVRCMHLLLEAVPAVAPQTSILDLRFNRIREIQPGAFRRLRSLNTLLLNNNQIKKIPNGAFEDLENLKYLYLYKNEIQSIDRQAFKGLASLEQLYLHFNQIETLDPESFQHLPKLERLFLHNNRITHLVPGTFSQLESMKRLRLDSNALHCDCEILWLADLLKTYAQSGNAQAAATCEYPRRIQGRSVATITPEELNCERPRITSEPQDADVTSGNTVYFTCRAEGNPKPEIIWLRNNNELSMKTDSRLNLLDDGTLMIQNTQEADEGVYQCMAKNVAGEAKTQEVTLRYLGSPARPTFVIQPQNTEVLVGESVTLECSATGHPLPQITWTRGDRTPLPIDPRVNITPSGGLYIQNVAQSDSGEYTCFASNSVDSIHATAFIIVQALPQFTVTPQSRVVIEGQTVDFQCAAKGHPQPVIAWTKGGSQLSVDRRHLVLSSGTLRISGVALHDQGQYECQAVNIIGSQKVVAHLTVQPRVTPVFASIPSDMTVEVGTNVQLPCSSQGEPEPAITWNKDGVQVTESGKFHISPEGFLTINDVGTADAGRYECVARNTIGYASVSMVLSVNVPDVSRNGDPYVATSIVEAIATVDRAINSTRTHLFDSRPRSPNDLLALFRYPRDPYTVGQARAGEIFERTLQLIQEHVQHGLMVDLNGTSYHYNDLVSPQYLSLIANLSGCTAHRRVNNCSDMCFHQKYRTHDGTCNNLQHPMWGASLTAFERLLKAVYENGFNTPRGINSQRQYNGHVLPMPRLVSTTLIGTEVITPDEQFTHMLMQWGQFLDHDLDSTVVALSQARFSDGQHCSSVCSNDPPCFSVMIPPNDPRVRSGARCMFFVRSSPVCGSGMTSLLMNSVYPREQINQLTSYIDASNVYGSTDHEARSIRDLASHRGLLRQGIVQRSGKPLLPFATGPPTECMRDENESPIPCFLAGDHRANEQLGLTSMHTLWFREHNRIAAELLKLNPHWDGDTVYHETRKIVGAEIQHITYRHWLPKILGEVGMKMLGEYRGYDPSVNAGIFNAFATAAFRFGHTLINPLLYRLDENFEPIPQGHVPLHKAFFSPFRIVNEGGIDPLLRGLFGVAGKMRIPSQLLNTELTERLFSMAHTVALDLAAINIQRGRDHGIPPYHDYRVYCNLSAAYTFEDLKNEIKSPVIREKLQRLYGSTLNIDLFPALMVEDLVPGSRLGPTLMCLLSTQFRRLRDGDRLWYENPGVFSPAQLTQLKQTSLARILCDNSDNITRVQQDVFRVAEFPHGYSSCEDIPRVDLRVWQDCCEDCRTRGQFNAFSYHFRGRRSLEFSYEDDKPTKRARWRKALSVKHGKHLSNATSATHEHLEGPATNDLKEFVLEMQKIITDLRKQINSLESRLSTTECVDDSGESHGGNTKWKKDPCTVCECKNGQITCFVEACQPAACPQPVKVEGACCPVCLKNTAEEKP | 1.294 | 1.157 | 1.486 | 1.3875 | 1.146 | up
Q3UHD3 (protein, UniProt Q3UHD3 1-1353, looked up, full-length) MSVPLAPKKSCFGQLRDHREGAKNNNESILRTGDTNANQIMLEVSSSCDEAKSRDLDDELGNSNLSRPQYHSHFQKEPLHLQGFGKGSQAGSTSQRESQASLTVHRQLSEEHAVKRGALQAPQCVQGPSLSSWRNAVGQASPEASAKKDAEIPRHIPKDKLAKTLDNEELKRASSCSAAAGSVPPTDLQPVQLDTLGPQDHVPARGEGPQRTPASHSPGKGFSPGEGTSEGNSVYLPKPSTSEAKGSSPSDTKMEGPHGLDVYNERITHAELTPSSASASKENPGLRHPEVCLGQGTGKSKVELKSVQPRNEEGLTSAQAQGPGCHEERSMSPVERQELLEKAYREATSQGNSSHRQLGVRRGSSLEEMTGVSAGVEGSQQATPTLSAAPAGEAGTRLTGKMSAGVGRMARETASGQTAPDVGQAAPVRRDPTESVPSEVSGEERRLGSGNSGSTKLLASGPSAGGSRTDTSGLLSPRGSNLEARKGKEMVAENRNLLENAAQTDNTPAGVDSAFSTPAPLLHPETTVNSSHHPTPPGSSSQELGVFSGDTGSPSVASPPTDGGQVLNTSPKVPDRTTCSSGIPKPPTHPKDTPSSQEAREKLETEKMEERAEAKPILMPKPKHVRPKIITYIRRNPQALSQGDASLVPVGLPYAPPTCGMPLPQEEKAASRDLQPSANMYEKLKPDLQKPRVFPSGLMVSGIKPPAHHFSQMSEKFLQEVADHPGKEEFCSPPYTHYEVPPTFYRSAMLLKPQLGLGAMSRLPSTKSRILIASQRSSASAIHPPGSLTTAASFYGSDPSDLKKASNSNAAKASLPKSGLRPPGYSRLPAAKLAAFGFVRSSSISAVPSSQSLDSVQPEQSRPVTRSTFGNEEQAPLKQALPSKDTPKGAGRAAPASSSNATTPRRSLLPAPKSTSTPAGAKKELQKDPEAKKPAVSSPKRTASAATKPHSPGYPKQRTSAPRNEFPPKPDLQAREAERQLAQRLRDRCEWQARQLGLARRELKKAIQGFDALAVSTKHFFGKSERALAKEKELSIELANIRDEVAFNTAKCEKLQKEKETLERRFEEELRRLGWQQQAEVQELQERLQQQFQAESARLQAEHQDQLLRMRCQHQEQVEDITASHEAALLEMENNHTVAITILQDDHDHKVQELMSTHEFEKKELEENFEKLRLTLQDQVDTLTFQSQSLRDRARRFEEALRKTTEEQLEIALAPYQHLEEDMQSLKQVLEMKNQQIHLQEKKIIELEKLVEKNIILEERIQVLQQQNEDLKARIDQNTVVTRQLSEENANLQEYVEKETQEKKRLSRTNEELLWKLQTGDPTSPIKLSPTSPVYRGSSSGPSSPARVSTTPR | 1.47 | 1.347 | 0.087 | 1.7985 | 2.649 | up
Q3UW68 (protein, UniProt Q3UW68 1-665, looked up, full-length) MAHDAETSVVKFKNQDFRTLRDHCLSRGQLFIDDTFPAAASSIGEKLLRGKHLSKLEWKRPTSKDLPFYPPHFILEGASRFDIHQGIAGDCWFLAALGSLTQNPQCLQKILMDQSYSHQYAGIFQFRFWQCGQWVEVVIDDQLPVIGDNFLFVHPRGGNKEFWPCLMEKAYAKLLGSYSQLHYGYLPDALVDLTGGVVTIINLHSSPFDLLTTVKTAIQAGSMVACATENGLTEEAKVMENGLVSQHAYTVTGAEKIQYQGRWEDIIRLWNPWGKTEWKGRWKDGSKEWRETHDPRKSQLYENKEDGEFWMSCQDFQENFSCLFICNQIPITMDHGVTPNESWRQMRFTNQVISRNRAGGHGRDMQYVFSVQEHTAGNNVVVAFTIMPQSLNTEEERFPLQFQVFKVPQFQNVQGRLPPAFFSPFRSAAQGTKYVSKCNFTKSFHLNPGTYVVVTTANGKEVEFLLRIFLKMPDKHRDPSSNFNLRALKESLPENGSRNSISYTYMDQGLDIDATQLQSLLNQEFLTGPPGDTFSLDQCQSIMALMDLKVNGRLDQEEFARLRSRLIHCQHIFQSIQRRPGVLLSSDLWKVIENTDFLVGIFISSELLSLMALRYSDSSGRVSFPTLVCFLIRLETMAKAFRNLSKDGKGIYLTETEWMNLVMYS | −1.164 | −1.402 | −1.492 | −1.0855 | −0.676 | down
Q3UR50 (protein, UniProt Q3UR50 1-1248, looked up, full-length) MPGLYCPTSWTPLPLTDSCVRAYAKGPCLSLRARLTYHNPQPQPVEGVFVYPLAEAEVVSGFEAEAAGRRVSFQLHSRRRSQAACCRALGPGLGTSTPRRCAQGHLVLNLAQARSTLVLPTGLVAAAGTMTVTLCSSRELPSRPDGVMHVALPTVFTPLAQPNLPGSPRSPGLCDDSPTSCFGVGSPEEERPTWEQPTATPDVFSGPARCPAPYTFSFEMLVTGPCLLAGLESPSHALRADALPHASSAATIRVTLAEGHQCDRALEILLHPSEPHQPHLMLETGSLSSAEYEAQVRARHDFQRLQQRDSGGERQVWFLQRRFHKDILLNPVLVLNFCPDLSSKPGHLNAATRELLFLLDGSGAGHKDAIVLAVKSLPAQTLVNLAIFGTLVQPLFPESRPCSDDTVQLICESIETLQTVNGPPDMLAVLDWALGQPQHRAYPRQMFLITAASPTAATTHQALEFMRWHRGAARCFSFALAPACRQLLHDLSVLSRGQAYFLRPGERLQPKLVQALRKALEPALSDISVDWFVPDAVEALLTPREIPALYPGDQLLGYCSLFRVDGFRSHALGGQEPGWQSLAGSVFPSPEEVLSATSPGTEPTHTTEPLGTGTVSAELSSPWAVGDSEQSMEALTDPVMDPGPNPSSDTAIWRRIFQSSYIREQYVLTHCSASPEPGPGSTCSSESPGSQGPGSPSGSRPLDPPSQQGCRSLAWVEPAGSRSCPLPVPPPSPFKVGAMSAEVLGRRQRAALAGRSLSSPSGRANPVPGRARHPSLDAIPDGLGPEPGQQLGQGLDDSGNLLSPAPLDWDMLMEPSFLFKPVPSSAESAPPAECLPPQAPRCHVVIRALCGEQPMCWEVGVGLEELWGPGDGSQPESLPMREAAWDQALHRLTAASVVQDNEQLALRGRAETRAEQGRVRRSWLRAIQTSKVSSAPSCFTCPVAVDATTREVLPGALQVWSSDPAELSGMSASQDQLAAAPLSTAVHSKGHQGGCSAGAWDLDLNDNSKSALGEPISPTGDHHGLPHQPPASSRLSLGRHRRLCSSNKGQTHENSNDGSNHDYLPLVRLQEAPGSFRLDEPFCAAVCIPQERLCRASPFAAHRASLSPTSASSPWAFLSPGIGQGDSATASCSQSPSSGSEGPGQVDSGRGSDTEASEGMERQDSSDLRGRTWATAVALAWLEHRCAAAFGEWELTASKADCWLRAQHLPDGLDLTALKAAARGLFLLLRHWDQNLQLHLLCYSPSNV | 1.46 | 1.678 | 1.171 | 1.6125 | 1.377 | up

— US11994512B2, “Single-cell genomic methods to generate ex vivo cell systems that recapitulate in vivo biology with improved fidelity” (Massachusetts Institute of Technology, priority 2018, dated 2024)
